Experimental data from patent US20020150536A1 (published 2002).

Columns and labels:
αvβ3 integrin [1] = biological target: T1, αvβ3 integrin (human, UniProt P06756 31-1048; P05106 27-788); assay: competition ELISA, displacement of biotinylated fibrinogen (6 nM) from immobilized αvβ3 (FIG. 4B)
T1 construct: Native detergent-extracted heterodimer, adsorbed to microtiter wells; also called integrin αvβ3; purified human αvβ3
Procedure: (§1) Briefly, proteins were dialyzed into 0.1 M NaHCO₃, 0.1 M NaCl. N-hydroxysuccinimido-LC-biotin (Pierce) was dissolved at 1 mg/mL in DMSO and added to the protein at a ratio of 0.1 mg biotin per 1 mg protein. The reaction was allowed to rotate at room temperature for 2 hours. Biotinylated proteins were dialyzed into phosphate-buffered saline and their concentrations determined by absorbance at 280 nm. […] Absorbance was read at 405 nm.

αIIbβ3 = biological target: T2, αIIbβ3 (UniProt P08514 32-1039; P05106 27-788); assay: competition ELISA, displacement of biotinylated fibrinogen (6 nM) from immobilized αIIbβ3 (FIG. 4C)
T2 construct: Bought purified protein, adsorbed to microtiter wells; also called integrin αIIbβ3; GPIIbIIIa
Procedure: An estimate of the maximum absorbance value was determined for each ligand/integrin pair in the absence of competitor. The baseline absorbance value was determined by adding 5 mM EDTA to the incubation buffer.
as §1

αvβ3 integrin [2] = biological target: T1, αvβ3 integrin; assay: competition ELISA, displacement of biotinylated vitronectin (10 nM) from immobilized αvβ3 (FIG. 4A)
Procedure: as §1

T1 sequence (P06756 31-1048, form in doubt, chain 1 of 2): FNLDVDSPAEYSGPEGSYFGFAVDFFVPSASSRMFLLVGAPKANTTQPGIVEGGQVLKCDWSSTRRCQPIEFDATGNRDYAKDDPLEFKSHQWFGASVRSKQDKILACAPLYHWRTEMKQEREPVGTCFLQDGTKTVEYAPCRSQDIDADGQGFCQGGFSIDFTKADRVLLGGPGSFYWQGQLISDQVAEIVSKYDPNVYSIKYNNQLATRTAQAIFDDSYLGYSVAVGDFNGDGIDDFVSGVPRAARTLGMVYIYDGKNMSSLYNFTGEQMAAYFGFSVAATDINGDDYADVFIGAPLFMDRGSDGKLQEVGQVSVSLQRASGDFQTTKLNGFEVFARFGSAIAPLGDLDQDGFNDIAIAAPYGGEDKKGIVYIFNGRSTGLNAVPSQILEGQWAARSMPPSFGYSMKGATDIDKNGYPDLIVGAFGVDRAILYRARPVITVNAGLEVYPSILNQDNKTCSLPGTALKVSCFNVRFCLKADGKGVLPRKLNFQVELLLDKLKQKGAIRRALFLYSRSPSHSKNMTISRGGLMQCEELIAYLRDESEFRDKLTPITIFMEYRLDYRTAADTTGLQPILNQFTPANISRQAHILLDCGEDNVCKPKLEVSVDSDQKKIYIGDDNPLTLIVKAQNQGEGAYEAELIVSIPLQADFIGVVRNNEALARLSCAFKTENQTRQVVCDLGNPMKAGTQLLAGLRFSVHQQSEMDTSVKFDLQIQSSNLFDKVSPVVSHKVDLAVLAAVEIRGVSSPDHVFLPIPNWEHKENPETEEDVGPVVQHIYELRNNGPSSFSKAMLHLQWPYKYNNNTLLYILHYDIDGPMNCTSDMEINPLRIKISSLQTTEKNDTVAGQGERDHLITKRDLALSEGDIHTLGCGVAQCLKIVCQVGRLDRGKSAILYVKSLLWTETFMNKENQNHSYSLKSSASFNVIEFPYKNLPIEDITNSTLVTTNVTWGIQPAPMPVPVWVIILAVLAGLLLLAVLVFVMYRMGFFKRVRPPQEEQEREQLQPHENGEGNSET
T1 sequence (P05106 27-788, form in doubt, chain 2 of 2): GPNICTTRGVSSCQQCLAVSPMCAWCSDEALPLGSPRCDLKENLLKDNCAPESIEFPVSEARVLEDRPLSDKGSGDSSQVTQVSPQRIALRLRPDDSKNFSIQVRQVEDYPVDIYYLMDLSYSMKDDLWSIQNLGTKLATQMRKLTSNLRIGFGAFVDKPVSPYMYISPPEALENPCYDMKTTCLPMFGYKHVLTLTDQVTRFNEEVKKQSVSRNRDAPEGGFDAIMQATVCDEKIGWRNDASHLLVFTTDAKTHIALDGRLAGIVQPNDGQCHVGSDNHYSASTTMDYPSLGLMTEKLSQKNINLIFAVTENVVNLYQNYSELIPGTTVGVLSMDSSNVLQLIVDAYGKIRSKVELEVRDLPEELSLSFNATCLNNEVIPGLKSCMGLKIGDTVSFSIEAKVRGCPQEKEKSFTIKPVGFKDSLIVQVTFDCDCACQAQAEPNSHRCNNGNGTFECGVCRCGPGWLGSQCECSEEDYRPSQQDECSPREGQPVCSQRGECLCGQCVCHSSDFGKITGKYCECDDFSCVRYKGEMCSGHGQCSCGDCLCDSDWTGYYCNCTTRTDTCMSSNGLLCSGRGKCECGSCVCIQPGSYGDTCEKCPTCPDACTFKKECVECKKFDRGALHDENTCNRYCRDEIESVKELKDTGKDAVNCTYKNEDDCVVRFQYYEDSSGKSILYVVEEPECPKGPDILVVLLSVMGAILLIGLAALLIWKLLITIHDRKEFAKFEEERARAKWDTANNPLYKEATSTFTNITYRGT

B1: Fibrinogen (ligand)
chain 1: ADSGEGDFLAEGGGVRGPRVVERHQSACKDSDWPFCSDEDWNYKCPSGCRMKGLIDEVNQDFTNRINKLKNSLFEYQKNNKDSHSLTTNIMEILRGDFSSANNRDNTYNRVSEDLRSRIEVLKRKVIEKVQHIQLLQKNVRAQLVDMKRLEVDIDIKIRSCRGSCSRALAREVDLKDYEDQQKQLEQVIAKDLLPSRDRQHLPLIKMKPVPDLVPGNFKSQLQKVPPEWKALTDMPQMRMELERPGGNEITRGGSTSYGTGSETESPRNPSSAGSWNSGSSGPGSTGNRNPGSSGTGGTATWKPGSSGPGSTGSWNSGSSGTGSTGNQNPGSPRPGSTGTWNPGSSERGSAGHWTSESSVSGSTGQWHSESGSFRPDSPGSGNARPNNPDWGTFEEVSGNVSPGTRREYHTEKLVTSKGDKELRTGKEKVTSGSTTTTRRSCSKTVTKTVIGPDGHKEVTKEVVTSEDGSDCPEAMDLGTLSGIGTLDGFRHRHPDEAAFFDTASTGKTFPGFFSPMLGEFVSETESRGSESGIFTNTKESSSHHPGIAEFPSRGKSSSYSKQFTSSTSYNRGDSTFESKSYKMADEAGSEADHEGTHSTKRGHAKSRPV
chain 2: QGVNDNEEGFFSARGHRPLDKKREEAPSLRPAPPPISGGGYRARPAKAAATQKKVERKAPDAGGCLHADPDLGVLCPTGCQLQEALLQQERPIRNSVDELNNNVEAVSQTSSSSFQYMYLLKDLWQKRQKQVKDNENVVNEYSSELEKHQLYIDETVNSNIPTNLRVLRSILENLRSKIQKLESDVSAQMEYCRTPCTVSCNIPVVSGKECEEIIRKGGETSEMYLIQPDSSVKPYRVYCDMNTENGGWTVIQNRQDGSVDFGRKWDPYKQGFGNVATNTDGKNYCGLPGEYWLGNDKISQLTRMGPTELLIEMEDWKGDKVKAHYGGFTVQNEANKYQISVNKYRGTAGNALMDGASQLMGENRTMTIHNGMFFSTYDRDNDGWLTSDPRKQCSKEDGGGWWYNRCHAANPNGRYYWGGQYTWDMAKHGTDDGVVWMNWKGSWYSMRKMSMKIRPFFPQQ
chain 3: YVATRDNCCILDERFGSYCPTTCGIADFLSTYQTKVDKDLQSLEDILHQVENKTSEVKQLIKAIQLTYNPDESSKPNMIDAATLKSRKMLEEIMKYEASILTHDSSIRYLQEIYNSNNQKIVNLKEKVAQLEAQCQEPCKDTVQIHDITGKDCQDIANKGAKQSGLYFIKPLKANQQFLVYCEIDGSGNGWTVFQKRLDGSVDFKKNWIQYKEGFGHLSPTGTTEFWLGNEKIHLISTQSAIPYALRVELEDWNGRTSTADYAMFKVGPEADKYRLTYAYFAGGDAGDAFDGFDFGDDPSDKFFTSHNGMQFSTWDNDNDKFEGNCAEQDGSGWWMNKCHAGHLNGVYYQGGTYSKASTPNGYDNGIIWATWKTRWYSMKKTTMKIIPFNRLTIGEGQQHHLGGAKQAGDV
notes: also called biotinylated fibrinogen; unmodified fibrinogen
IC50 (αvβ3 integrin [1]): 43 nM | IC50 (αIIbβ3): 15 nM

B2: Vitronectin (ligand, human, UniProt P04004 20-478, looked up)
chain: DQESCKGRCTEGFNVDKKCQCDELCSYYQSCCTDYTAECKPQVTRGDVFTMPEDEYTVYDDGEEKNNATVHEQVGGPSLTSDLQAQSKGNPEQTPVLKPEEEAPAPEVGASKPEGIDSRPETLHPGRPQPPAEEELCSGKPFDAFTDLKNGSLFAFRGQYCYELDEKAVRPGYPKLIRDVWGIEGPIDAAFTRINCQGKTYLFKGSQYWRFEDGVLDPDYPRNISDGFDGIPDNVDAALALPAHSYSGRERVYFFKGKQYWEYQFQHQPSQEECEGSSLSAVFEHFAMMQRDSWEDIFELLFWGRTSAGTRQPQFISRDWHGVPGQVDAAMAGRIYISGMAPRPSLAKKQRFRHRNRKGYRSQRGHSRGRNQNSRRPSRATWLSLFSSEESNLGANNYDDYRMDWLVPATCEPIQSVFFFSGDKYYRVNLRTRRVDTVDPPYPRSIAQYWLGCPAPGHL
notes: also called biotinylated vitronectin; unmodified vitronectin
IC50 (αvβ3 integrin [2]): 59 nM
